Residue numbers refer to the chain shown, from its start.
B1: 抗PAD4抗体2-1-47 (antibody, human IgG1, lambda, V domains shown)
VH: EVQLLESGGGLVQPGGSLRLSCAASGFTFSTYAMGWVRQAPGKGLEFVAAIRNDGSWTGYGTPYKTRFTISRDNSKNTLYLQMSSLRAEDTAVYYCAKYTGSSGGSIGAWGQGTLVTVSS
VL: SYELTQPPSVSVSPGQTARITCSGGNRNYYYGWYQQKPGQAPVTVIYANDKRPSGIPERFSGSNSGSTTTLTISGVQAEDEADYYCGTATTGKYVFGGGTKLTVLG
B2: 抗PAD4抗体4-2-25 (antibody, human IgG1, lambda, V domains shown)
VH: B1 VH with G61P, T62P, Y64L, T66G
VL: B1 VL with T90Y
B3: 抗PAD4抗体3-1-39 (antibody, human IgG1, lambda, V domains shown)
VH: B1 VH with Y60T, G61S, T62V, P63N, Y64A
VL: B1 VL
B4: 抗PAD4抗体3-2-37 (antibody, human IgG1, lambda, V domains shown)
VH: B1 VH with Y60I, T62Y, P63N, Y64Q, T66S, A97G
VL: B1 VL with T90L

These binders were tested against ヒ卜PAD4(Cayman Chemical company、Cat. 10500) (human) (UniProt Q9UM07) (assay: SPR Biacore T200, stored antibody captured on Protein A chip, human PAD4 at 50 nM as analyte).
UniProt Q9UM07, sequence (Q9UM07 whole entry): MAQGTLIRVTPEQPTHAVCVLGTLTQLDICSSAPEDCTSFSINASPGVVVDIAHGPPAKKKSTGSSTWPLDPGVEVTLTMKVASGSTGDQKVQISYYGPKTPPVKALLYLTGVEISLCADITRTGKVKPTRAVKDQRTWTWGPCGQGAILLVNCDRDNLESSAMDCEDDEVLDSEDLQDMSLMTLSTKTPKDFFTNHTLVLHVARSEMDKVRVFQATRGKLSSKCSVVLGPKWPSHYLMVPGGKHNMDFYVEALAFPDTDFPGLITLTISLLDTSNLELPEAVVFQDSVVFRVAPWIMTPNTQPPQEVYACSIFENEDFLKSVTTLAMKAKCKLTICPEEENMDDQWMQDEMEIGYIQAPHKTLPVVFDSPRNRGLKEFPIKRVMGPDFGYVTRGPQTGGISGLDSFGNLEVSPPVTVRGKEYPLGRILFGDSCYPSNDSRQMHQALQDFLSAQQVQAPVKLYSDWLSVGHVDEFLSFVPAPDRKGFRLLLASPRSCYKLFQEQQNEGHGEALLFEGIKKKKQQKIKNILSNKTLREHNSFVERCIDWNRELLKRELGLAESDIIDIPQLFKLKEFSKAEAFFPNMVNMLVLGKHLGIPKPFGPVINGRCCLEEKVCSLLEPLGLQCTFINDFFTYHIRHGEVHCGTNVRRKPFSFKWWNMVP

| 抗原結合活性 (relative antigen binding after 40℃ for 4 weeks against 4℃ for 4 weeks) [%] | Binder |
| --- | --- |
| > 90 | B1 |
| > 90 | B2 |
| > 90 | B3 |
| > 90 | B4 |

— patent publication JP2024028198A
